Data reported in patent publication US20200150118A1.

Target: T1, S100A9 (alarmin) in autologous bone marrow plasma of MDS patients (human) (UniProt P06702)
T1 sequence (looked up): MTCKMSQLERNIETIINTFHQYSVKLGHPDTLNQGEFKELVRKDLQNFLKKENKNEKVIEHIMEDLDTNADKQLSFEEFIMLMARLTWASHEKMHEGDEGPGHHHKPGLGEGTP
Assay: cell-based or functional assay

## S100A9 high-affinity chimeric (CD33-IgG1) decoy receptor (from UniProt P20138 18-259) (Fc fusion)
  reduction of the fraction of pyroptotic cells, CD33+ cells (MDS BM-MNC in autologous BM plasma, flow cytometry): 68%
  reduction of the fraction of pyroptotic cells, CD71+ cells (MDS BM-MNC in autologous BM plasma, flow cytometry): 64%
  reduction of the fraction of pyroptotic cells, progenitor cells (MDS BM-MNC in autologous BM plasma, flow cytometry): 23%
  reduction of the fraction of pyroptotic cells, stem cells (MDS BM-MNC in autologous BM plasma, flow cytometry): 44%
